Test results from doi:10.1101/2023.02.11.528153.

Biological target: MERS-CoV spike RBD fragment (human betacoronavirus 2c EMC/2012 …, UniProt K0BRG7 367-606)
Experiment: MST

ACATAGGCGTT (ssDNA) [Labeled complementary strand]
binding result: no binding
